This is an account of results in patent publication US20180355061A1 (Janssen / Centocor, published 2018).

Substitutions are numbered along the chain they refer to.

Sequences and labels used below:
B1: PD1B1085 (antibody, human IgG1, kappa, V domains shown)
VH: QVQLVQSGSELKKPGASVKVSCKASGYTFTDYSMHWVRQAPGQGLEWMGWINIETGYPTYAQGFTGRFVFSLDTSVSTAYLQISSLKAEDTAVYFCARDYYGTYFYAMDYWGQGTLVTVSS
VL: EIVLTQSPATLSLSPGERATLSCTASSSVSSSYLHWYQQKPGLAPRLLIYSTSNLASGIPDRFSGSGSGTDYTLTISRLEPEDFAVYYCHQYHRSPLTFGQGTKLEIKR
notes: also called VH PD1H585; VL PD1L469
B2: PD1B1095 (antibody, human IgG1, kappa, V domains shown)
VH: B1 VH with Y57W
VL: B1 VL with S30P
notes: also called VH PD1H587; VL PD1L652
B3: PD1B1087 (antibody, human IgG1, kappa, V domains shown)
VH: B1 VH with Y57W
VL: B1 VL
notes: also called VH PD1H587; VL PD1L469
B4: PD1B1093 (antibody, human IgG1, kappa, V domains shown)
VH: B1 VH
VL: B1 VL with S30P
notes: also called VH PD1H585; VL PD1L652
B5: PD1B1091 (antibody, human IgG1, kappa, V domains shown)
VH: B1 VH with Y57H
VL: B1 VL with V29F
notes: also called VH PD1H586; VL PD1L651
B6: PD1B1089 (antibody, human IgG1, kappa, V domains shown)
VH: B1 VH with Y57E
VL: B1 VL with S30P
notes: also called VH PD1H405; VL PD1L652
B7: PD1B1092 (antibody, human IgG1, kappa, V domains shown)
VH: B1 VH with Y57W
VL: B1 VL with V29F
notes: also called VH PD1H587; VL PD1L651
B8: PD1B1088 (antibody, human IgG1, kappa, V domains shown)
VH: B1 VH with Y57E
VL: B1 VL with V29F
notes: also called VH PD1H405; VL PD1L651

One assay addresses T1, cyno PD-1 (soluble analyte in SPR) (cyno).
T1 construct: also called cynomolgus PD-1
Kind of assay: SPR (ProteOn XPR36), mAb captured on anti-human IgG Fc, cyno PD-1 as analyte, 25 C. Here is the method:
(§1) Affinity measurements were performed using a ProteOn XPR36 system (BioRad). […] Approximately 5000 RU (response units) of mAbs were immobilized. The kinetic experiments were performed at 25° C. in running buffer (DPBS+0.01% P20+100 μg/mL BSA). To perform kinetic experiments, 200 RU of mAbs were captured followed by injections of analytes (human and cyno PD-1) at concentrations ranging from 1.563 nM to 400 nM (in a […] serial dilution). The association phase was monitored for 3 minutes at 50 μL/min, then followed by 10 or 15 minutes of buffer flow (dissociation phase). The chip surface was regenerated with two 18 second pulses of 100 mM H₃PO₄ (Sigma, Cat #7961) at 100 μL/min.
(§2) The collected data were processed using ProteOn Manager software. First, the data was corrected for background using inter-spots. Then, double reference subtraction of the data was performed by using the buffer injection for analyte injections. The kinetic analysis of the data was performed using a Langmuir 1:1 binding model. The result for each mAb was reported in the format of ka (On-rate), kd (Off-rate) and KD (equilibrium dissociation constant).
(§3) Affinity of the antibodies to human and cyno PD-1 was measured using SPR as described in Example 1.
With B1, the affinity, expressed as Kd, was 6.45 nM; the koff (in general, the rate constant with which the complex falls apart) is 0.00129 s⁻¹; the on-rate constant (kon) (commonly the rate constant with which the complex forms) was found to be 200000 M⁻¹ s⁻¹.
The like results for B2 were, in that order, 4.23 nM, 0.000781 s⁻¹ and 185000 M⁻¹ s⁻¹.
The like results for B3 were, in that order, 11.6 nM, 0.00247 s⁻¹ and 212000 M⁻¹ s⁻¹.
On the same counts, the results for B4 are 2.18 nM, 0.000368 s⁻¹ and 169000 M⁻¹ s⁻¹.
B5: the affinity, expressed as Kd, was 9.32 nM; the koff came out at 0.000924 s⁻¹; the kon was 99100 M⁻¹ s⁻¹.
On the same counts, the results for B6 are 90 nM, 0.00839 s⁻¹ and 93200 M⁻¹ s⁻¹.
The like results for B7 were, in that order, 3.18 nM, 0.000411 s⁻¹ and 129000 M⁻¹ s⁻¹.
As to B8, the Kd (commonly the concentration at which binding is half-saturated) is 72.4 nM, the off-rate (koff) turned out to be 0.00479 s⁻¹ and the kon was 66100 M⁻¹ s⁻¹.

The target in the next assay is T2, human PD-1 (soluble analyte in SPR) (human, UniProt Q15116 25-170, limits assumed).
T2 construct: also called CD279; PDCD1
T2 sequence (Q15116 25-170 limits assumed): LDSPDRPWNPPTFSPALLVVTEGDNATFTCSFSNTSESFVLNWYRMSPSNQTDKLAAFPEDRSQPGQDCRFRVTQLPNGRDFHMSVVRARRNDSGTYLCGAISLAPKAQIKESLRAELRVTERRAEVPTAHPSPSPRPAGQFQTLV
Kind of assay: SPR (ProteOn XPR36), mAb captured on anti-human IgG Fc, human PD-1 as analyte, 25 C. The procedure: as §1, §2, §3
Molecule B1 returned a Kd of 0.911 nM, an off-rate constant (koff) of 0.000142 s⁻¹ and an association rate constant (kon) of 156000 M⁻¹ s⁻¹.
For B2, the Kd turned out to be 0.471 nM, the off-rate (koff) turned out to be 7.12e-05 s⁻¹ and the kon turned out to be 151000 M⁻¹ s⁻¹.
On the same counts, the results for B3 are 1.44 nM, 0.000239 s⁻¹ and 166000 M⁻¹ s⁻¹.
The like results for B4 were, in that order, 0.349 nM, 4.36e-05 s⁻¹ and 125000 M⁻¹ s⁻¹.
On the same counts, the results for B5 are 0.83 nM, 6.44e-05 s⁻¹ and 77700 M⁻¹ s⁻¹.
In the case of B6, the Kd came to 8.09 nM, the off-rate constant (koff) was determined as 0.000474 s⁻¹ and the kon worked out at 58600 M⁻¹ s⁻¹.
B7 gave a Kd of 0.214 nM, a koff of 3e-05 s⁻¹ and a kon of 140000 M⁻¹ s⁻¹.
On the same counts, the results for B8 are 10.9 nM, 0.000341 s⁻¹ and 31300 M⁻¹ s⁻¹.
